We go through five molecules from US7888372B2, “Compositions and methods for modulating bone mineral deposition” (National Institutes of Health (NIH), priority 2001, dated 2011).

The subject of one assay is TNAP-/- mice. The assay is described as follows: Administration of exogenous pyridoxal HCl to TNAP-/- mice. It is filed as in vivo, mouse. From the text:
At the time that we were developing the TNAP knock-out mice, Waymire et al. (Nature Genet. 11:45-51, 1995) independently reported the production of TNAP knock-out mice. […] These studies provided support to the hypothesis, set forth by Michael P. Whyte in his studies of human hypophosphatasia, that pyridoxal-5′-phosphate (vitamin B6) might be a natural substrate of TNAP. The rationale for this hypothesis is that pyridoxal-5′-phosphate cannot easily traverse biological membranes but that the related, more hydrophobic derivatives, pyridoxal and pyridoxamine can do so with much better kinetics. Thus, the presumption is that the cells that are deficient in TNAP cannot dephosphorylate pyridoxal-5′-phosphate on the outside of the cells leading to an intracellular deficiency of Vitamin B6 (Whyte, Endocrine Rev. 15:439-461, 1994). […] Control mice fed a vitamin B6-depleted diet developed epileptic seizures indistinguishable from those observed in TNAP−/− mice, abnormal apoptosis in the thymus and thinning of the nerve roots.

Assay [1] concerns wild-type osteoblastic cells. Briefly: Predicted effect of factors expressed or delivered on PPi and mRNA expression. Type of assay: cell-based, mouse. The source says:
In order to test the hypothesis that PPi itself represents the signaling molecule that influences the transcription of the TNAP, PC-1 and ANK genes, we examine the levels of TNAP, PC-1 and ANK in calvarial tissue and osteoblasts from the mutant mouse lines and in the rescued mouse strains and by measure mRNA for TNAP, PC-1 and ANK by Northern blot analysis. Subsequently, cells from the different mutant strains and rescued mice are exposed to medium with different concentrations of PPi, or non-hydrolyzable analogues (phosphocitrate and the biphosphonate etidronate), for various time points and tested for changes in mRNA levels of the three genes. In addition, in vitro cytoplasmic and nuclear microinjection of PPi and analogues into osteoblastic cells are performed to examine the effect of intracellular PPi on these same genes. Measurements of mRNA changes are monitored by real-time RT-PCR using an ABI 7700 Sequence Detection system to facilitate these measurements.
These evaluations are done on osteoblastic cells from the different mutant mice and cross-bred strains with or without rescue of the deficient molecule after specifically transfecting the respective cDNAs back into the deficient cells. As a control for the transfections, we employ mutant enzyme-deficient PC-1 (Johnson et al., J. Bone Miner. Res. 14:883-892, 1999; Johnson et al., Arthritis Rheum. 42:1986-1997, 1999), mutant ANK (Ho et al., Science 289:265-270, 2000), and mutant enzyme-deficient TNAP (Wennberg et al., J. Bone Mineral Res., 2000). The table summarizes the experiments to be performed and the results that are expected.

As to `Cc1ncc(CO)c(C=O)c1O.Cl` [pyridoxal HCl], in the assay with TNAP-/- mice, the episodes of apnea entry is given as “episodes of apnea ceased”; the “hypomineralization and accumulation of osteoid” value was “continued to worsen with age”; the life span result is “increased the life span”; the “myelinization of lumbar nerve roots” value was “improved”. In the assay with TNAP-/- mice, the “onset of epileptic attacks” value is given as “delayed the onset of epileptic attacks”.

With “ANK: factor expressed in wild-type osteoblastic cells by transfecting the cDNA (Table 1)”, in assay [1], the “Predicted effect on PPi, Extracellular” value is listed as “⇑”; the “Predicted effect on PPi, Intracellular” value is “↓”; the “Predicted effect on mRNA expression, ANK” value is listed as “↓”; the “Predicted effect on mRNA expression, TNAP” value (shortened to “Predicted effect … TNAP”) is reported as “⇑”.

B1: PC-1: factor expressed in wild-type osteoblastic cells by transfecting the cDNA (Table 1) (protein)
chain: MERDGDQAGHGPRHGSAGNGRELESPAAASLLAPMDLGEEPLEKAERARPAKDPNTYKVLSLVLSVCVLTTILGCIFGLKPSCAKEVKSCKGRCFERTFSNCRCDAACVSLGNCCLDFQETCVEPTHIWTCNKFRCGEKRLSRFVCSCADDCKTHNDCCINYSSVCQDKKSWVEETCESIDTPECPAEFESPPTLLFSLDGFRAEYLHTWGGLLPVISKLKNCGTYTKNMRPMYPTKTFPNHYSIVTGLYPESHGIIDNKMYDPKMNASFSLKSKEKFNPLWYKGQPIWVTANHQEVKSGTYFWPGSDVEIDGILPDIYKVYNGSVPFEERILAVLEWLQLPSHERPHFYTLYLEEPDSSGHSHGPVSSEVIKALQKVDRLVGMLMDGLKDLGLDKCLNLILISDHGMEQGSCKKYVYLNKYLGDVNNVKVVYGPAARLRPTDVPETYYSFNYEALAKNLSCREPNQHFRPYLKPFLPKRLHFAKSDRIEPLTFYLDPQWQLALNPSERKYCGSGFHGSDNLFSNMQALFIGYGPAFKHGAEVDSFENIEVYNLMCDLLGLIPAPNNGSHGSLNHLLKKPIYNPSHPKEEGFLSQCPIKSTSNDLGCTCDPWIVPIKDFEKQLNLTTEDVDDIYHMTVPYGRPRILLKQHHVCLLQQQQFLTGYSLDLLMPLWASYTFLRNDQFSRDDFSNCLYQDLRIPLSPVHKCSYYKSNSKLSYGFLTPPRLNRVSNHIYSEALLTSNIVPMYQSFQVIWHYLHDTLLQRYAHERNGINVVSGPVFDFDYDGRYDSLEILKQNSRVIRSQEILIPTHFFIVLTSCKQLSETPLECSALESSAYILPHRPDNIESCTHGKRESSWVEELLTLHRARVTDVELITGLSFYQDRQESVSELLRLKTHLPIFSQED
Consider B1, for which, in assay [1], the “Predicted effect on PPi, Extracellular” value is recorded as “⇑”; the “Predicted effect on PPi, Intracellular” value is “⇑”; the “Predicted effect on mRNA expression, PC-1” value (“Predicted effect … PC-1” for short) is “↓”; the “Predicted effect … TNAP” value is reported as “⇑”.

B2: TNAP: factor expressed in wild-type osteoblastic cells by transfecting the cDNA (Table 1) (protein)
chain: FVPEKERDPSYWRQQAQETLKNALKLQKLNTNVAKNVIMFLGDGMGVSTVTAARILKGQLHHNTGEETRLEMDKFPFVALSKTYNTNAQVPDSAGTATAYLCGVKANEGTVGVSAATERTRCNTTQGNEVTSILRWAKDAGKSVGIVTTTRVNHATPSAAYAHSADRDWYSDNEMPPEALSQGCKDIAYQLMHNIKDIDVIMGGGRKYMYPKNRTDVEYELDEKARGTRLDGLDLISIWKSFKPRHKHSHYVWNRTELLALDPSRVDYLLGLFEPGDMQYELNRNNLTDPSLSEMVEVALRILTKNLKGFFLLVEGGRIDHGHHEGKAKQALHEAVEMDQAIGKAGAMTSQKDTLTVVTADHSHVFTFGGYTPRGNSIFGLAPMVSDTDKKPFTAILYGNGPGYKVVDGERENVSMVDYAHNNYQAQSAVPLRHETHGGEDVAVFAKGPMAHLLHGVHEQNYIPHVMAYASCIGANLDHCAWAG
For B2, in assay [1], the “Predicted effect on PPi, Extracellular” value was “↓”; the “Predicted effect on PPi, Intracellular” value was “↓”; the “Predicted effect on mRNA expression, ANK” value is “⇑”; the “Predicted effect … PC-1” value was “⇑”.

B3: iPPiase: inorganic pyrophosphatase, factor expressed in wild-type osteoblastic cells (Table 1) (protein, UniProt Q15181 2-289, looked up)
Inorganic pyrophosphatase: SGFSTEERAAPFSLEYRVFLKNEKGQYISPFHDIPIYADKDVFHMVVEVPRWSNAKMEIATKDPLNPIKQDVKKGKLRYVANLFPYKGYIWNYGAIPQTWEDPGHNDKHTGCCGDNDPIDVCEIGSKVCARGEIIGVKVLGILAMIDEGETDWKVIAINVDDPDAANYNDINDVKRLKPGYLEATVDWFRRYKVPDGKPENEFAFNAEFKDKDFAIDIIKSTHDHWKALVTKKTNGKGISCMNTTLSESPFKCDPDAARAIVDALPPPCESACTVPTDVDKWFHHQKN
With B3, in assay [1], the “Predicted effect on PPi, Extracellular” value is reported as “=”; the “Predicted effect on PPi, Intracellular” value was “↓”; the “Predicted effect on mRNA expression, ANK” value is “⇑”; the “Predicted effect … PC-1” value was “⇑”. The “Predicted effect … TNAP” value in assay [1] is “↓”.
